Test results as given in the DeepSol protein solubility set.

Experiment: soluble on expression in E. coli; label from the status in PepcDB or PDB records

Which “soluble on expression in E. coli” value does the source give for “MPIPNNPGAGENAFDPVFVKDDDGYDLDSFMIPAHYKKYLTKVLVPNGVIKNRIEKLARDVMKEMGGHHIVALCVLKGGYKFFADLLDYIKALNRNSDRSIPMTVDFIRLKSYCNDQSTGDIKVIGGDDLSTLTGKNVLIVEDIIDTGKTMQTLLSLVRQYNPKMVKVACLFIKRTPLWNGFKADFVGFSIPDHFVVGYSLDYNEIFRDLDHCCLVNDEGKKKYKATSL” here?
The value was “soluble”.

For “MSLSQLDKTCVIIGASHAGVNCAFALRKEGWQGGIVLYDADPSLPYHRPPLSKAYLTSDAGIEKYLLKSAESYEKDNITLRMGIQVSAIDRTHKILTLNDGNTRSYDKLVIATGARPIIPPTKGIKTAKNLYPLRNAADVQNIRQALESNENKRVVIVGAGYIGLEIAASLKNRGAQVTVLEREDRVLARVTAPEMSAYFQQLHVSQGVEIVTNKNVVSIAPRNGFNTITCSDGTQYDADVIVMGVGIRVNLELAEDAGLNISNGICVNAAGQTNDEDIYAIGDCTLHYNPHYNRHIRLESVQNAVDQAKVTAAAICGKEVAYNAIPWFWSDQYDVKLQIVGLSSGYNELLIRREDDGRKFSSWYFKDDELLAVDAINNAKAYMIATKFIKERRKVDKIKLTDASVALSPLNLSAESHEGHHHHHH”, which “soluble on expression in E. coli” value is on record?
Its value is “soluble”.

For “MILITLLKDGVGEKMRIVFDLGGSVVMPKEGAKAEKIMEYANIFKKIKDEGHEVAIVVGGGKTAREYIEIGRELGASESFCDELGIMATRMNAMILITALGDYSIKKVPTSFEEAELILNLGKIPVMGGTHPGHTTDAVAASLAEFINADLLVIGTNVDGVYDKDPNKYEDAKKFDKMSAKELVDLAISSSLKAGSSSVVDLLAAKIIERAKLKVAVVKGTPEELLNVSKGIINGTIIEG”, which “soluble on expression in E. coli” value is on record?
The value was “soluble”.

With “EKQNEIQKKKARRHQLAMDYPEFISTFTLYLGAGMPARRAWFQIASVYRQQENTRYVYEEMVYTMREMQRGTPESECYEHFGMRCGLPVYRKFAVMLSQNLRKGTKGLAELLQREAAGAFEERKAAARKLGEETSTR” as the sequence, how does the “soluble on expression in E. coli” value read?
The value was “not soluble”.

Which “soluble on expression in E. coli” value does the source give for “MDFQIEEDRLGMRIQSETIELTKDEKGVVGISIGGGGPYCPCVYVVQVFDKSPAFKDGRIRCGDEIVAINGITVKGERKSAVAQLIQVSLNPVKITINKLEEANTKGKTLDILIKKVKHKVVEFVDQDSADALGLSRAILTNDPLAEKEKILEENAEFYRHLVAYFGDMFQYQQKISECQKEFGSIFCDLAAHEKQQTANEAFSSFGDKHRMIAKKQSESAVPLQKMVSDLQVYIDHVVPDTRLTIKKYLDVKYEYLSYCLKLKEMDDEEVEFVAIQEPLYRVETGNYEYRVMLRCRQECRARFMKMRDDVMVKIELLDQKHVRDIAQHLAIFAKTMAKCQQECAEILKERIDVPIEIDLEQLNLNMNTSDGKANGEEEMGQDAIVLNDNPLEGDLIDVNDIGSSTEFNEPRISLRRDSQNDTSQPLLGAPDSPLEELSLIDIS” here?
The value was “not soluble”.

With “MNRLPNIAKPPQKSNQRKEKAPPEVPALIADKDRGTYYEKGRFLGKGGFAHCYELTNRATREVVAGKVVPKSMLVKQYQRDKMTQEVQIHRELGHINIVKLFNFFEDNLNVYITLELCARRSLMELHKRRKAVTEPEARYFTHQIVDGVLYLHDLNIIHRDMKLGNLFLNDDLVVKIGDFGLATTVNGDERKKTLCGTPNYIAPEVLNKAGHSFEVDIWAVGCILYILLFGQPPFESKSLEETYSRIRHNNYTIPSIATQPAASLIRKMLDPEPTRRPTAKQVQRDGFFKSGFMPTRLPVSCLTMVPKFGGHETSMMEENVAPRGVDARSQRPLNGRAGLSALPQHIVSNNADRERAQQQAAEATFREPEDAYLSQLFHQVAVLLEQRIPGLEEEEAALDGYQSPECLPVFWISKWVDYSDKYGIGYQLCDNSVGVLFNDNSRIMLDQAGNELTYIEKSNKEHYFSMHSGEMPGLLNKKVTLLKYFRSYMNDHLVKAGEGSEQRAGDDLARLPTLRVWFRTKSAIVLHLSNGTVQINFFNDHVKMMMCPLMQAVTFIDQNKRMLTYKLNNLQRNGCPEKFLHRLKYAKTMIERLMSDANVVSQNPARQPDMPRSMAAARSASAGSRGPNQAASHLPQSASGSNIHPRR” as the sequence, how does the “soluble on expression in E. coli” value read?
The value was “not soluble”.

With “ARVDQTPQRITKETGESLTINCVVRDSRCVLSTGYWYRKPPGSRNEESISDGGRYVETVNRGSKSFSLRINDLTVKDSGTYRCKPESRYGSYDAVCAALNDQYGGGTVVTVNAAAHHHHHH” as the sequence, how does the “soluble on expression in E. coli” value read?
The value was “soluble”.

For “MAHHHHHHMHPYLFICKEGNNNNGSTTNLKSGMSLSDRRHTPLGRNLSESTELSQSLSSRSGGSSPIPRPNLDDITRRLLEENEGMLFEINKLTRELTDERAKVSGLHETLAERSAELELMKEKLSDATVVATDDTGKPINYKRECDGLAADNNRLVKEYERVCTELEKRTEEIRREMGDQRDEAEGKTISVQVEQFNREITALVPTVEHIVNSLKRCVVTGGIAEERILENAQKELHTMRRITDTVRRMNAGDETCVKGLLTQIQKGEQLTAPGDVAVVIRWMVVRAFEAGLQSAEGNLRTLVDILNNSKGRYTSENATTGSGEVPASGISVRQMFRLLKM”, which “soluble on expression in E. coli” value is on record?
The value was “not soluble”.

With “MERISLSFVGDVMLAGSATDTLQRYGYSYPFSATAAELRRSDLVVGNLEAPLTDGGREFRAKRFRFKASPVAAAALKRAGFSVMTLANNHMMDFGADGLSDTIHHLNRNGIAFAGAGPSIADARREASVTVRGQTVAFLAYSLTQPIEFFATEGRPGTAPGYAGHYLADIRRVRSSADHVVVSFHWGQERAALPSPYQIETAHRAIDAGADIVIGHHPHVLQGIEIYRGSPIFYSLGNFAFGSRSPSADRSIIARVTLGEGPPIVEVIPLNVLFREVRFQPAILTGRKAADVVDRLNRLSAPFSTVITSTAGSHLVAPAEANARLARRQLEHHHHHH” as the sequence, how does the “soluble on expression in E. coli” value read?
The value was “not soluble”.

For “MGSDKIHHHHHHMRMLRRGSRGNDVAEVQVRLSELGYIPGPIDGIFGPKTEAAVIRFQKDRGLNPDGIVGPLTYQALFQPGPQPGYVLYTIKAGDTFYKLSLAFGVSLNEIIAANPGVDPYQLRIGQQVRIPKGGPGRRHTFSAWIPYWVQQEAMAVVRQHAELMTTLSPFWYELTPTGDLLLYPNAEDSSLIEFARSRGIELIPLVANNYDRQLISTVLNNPDLRQRNIAQIVNKVRSMNYTGIEIDYENIAAADRELFVLFLRELKAALAPYNKKLYVAIQAKTRADEPVSIGHDYGGIGAAVDVVRLMLYDYSWDNPGPIAPASWIRQVLDYAVTVIPPAKLEAGLPTYGYDWGTTRRSITYDDAIRLAQQHGAQIIQDPQRGPHFNYTDADGIAHQVWFTNALNFATFVDIVNQYNLRGISIWHPGGDDPQIYTVIQDRLE”, which “soluble on expression in E. coli” value is on record?
The value was “not soluble”.

Which “soluble on expression in E. coli” value does the source give for “MSPAQIIRTPHSFPPSFTGTSSSAENSHAQSPQQVLTRAFVASGELNAAFGRTSTASEQDFTSLLGTLQRELERKTLSFPDIAELANQLAEAAKGDQGGHWLGRDEQQTLKGMIDRCKSQLAHTHASDASYDPLAQVCENLKTARLHQSISQMTGEAHAKVRGVPDLLALIQLDPDVLAEKPVGMTSYVNFGSFICMAKARTAELSEDLRSDPNEVALLLHPHADTILELERLPDALAALTENCPDTPTRDDLRSLAKETGELLQQLRANDLLPRSEEVSSYQGETSVRSREVVEPKLTLCQAGGNGQGQLEASSARPESLRYAPTRAASSGSEARVPGQAVGGKIADDAQKVAGLYAEKKRTNWTQANGVAGKISHKIQSLLGMRDAGSRVQAFVAFMADGKGRPGATMLDLGDGWMRATRVIKGEAALIDFQCDSDGKVVDARHPGRFPVLPQGNEREAFKTVLQELKFRGAETLSKVPVYYVNRNTRGYVIPTHGYVVAGHPNRGRKSGAVLYGVGGDPKRGPVALDEKLLGHLVGRSDSKTSSKLSAPVKAAISALAGASFATREDFYDAYCAVRGDAVDPLERHNEISSIYRLLPLSTMEMWPKKADDYRVARPA” here?
The value was “not soluble”.

With “MYVTVTEAAYKKIMDTIPSEAKYIKLFYDNEGCGCVMSGIIDLVAVAEKDERDVDIESSTMNFIADRTKLVFMDDKLTVDWHEGGGTFQLKSPSQFYNPNMKLHVRVLEHHHHHH” as the sequence, how does the “soluble on expression in E. coli” value read?
The value was “soluble”.

For “ENYLSIEKRLYENLAQESSHSASRLQFLLEHAQANTQGLSDFIGLLADKDDINNPEKLKTVLTNRIQRNPDFFGSAIAFKPNTFPNKKLFSPYVYRSGSGFNYLDIGADGYDYTDGNWDWWSKAINQVGGYWSKAYFDEGAGNVLMITYAVPFGVQPDYFGVTTVDLALDRLPEQLGIAPSRLVVLDDQGRLIFHSDKEKVLAASSSGWLDKQNIKNIAFATLLNDGQAGQASFVDDKGTVYLASVAEVAKLKWRVVVMVPKHELFASLLDDIA”, which “soluble on expression in E. coli” value is on record?
Its value is “soluble”.

With “MSLDKKAVFADVAEKDASFINENYYISPSLDTLSSYSLLQLRKVPHLVVGHKSYGKIEFLEPVDLAGIPLTSLGGVIITFEPKTCIIYANLPNRPKRGEGINVRARITCFNCYPVDKSTRKPIKDPNHQLVKRHIERLKKNPNSKFESYDADSGTYVFIVNHAAEQTEGHHHHHH” as the sequence, how does the “soluble on expression in E. coli” value read?
The value was “soluble”.

For “MAHHHHHHMSLADEVPREWASSIRPFLQRADEFQERVPVVAYFLRTHAVYLAMKMWRKEDGPGKAFIVKLLDTLESEKKRLEQELADVDGRVLLTQYALRIFSRADDEERSDGVVANMNLVRLFFTASLLFEATAQFTDDGTLDPIATEKRDYARYIAVEMKKAMDKGVPYVSPNRTGGMVESNKEHEGESTGGGGFSTNFVQSQQPGYGQWSAQYVTPQPPPPSHEPPETPMWSGPESTNTSSTQQQQQSTPLFQTTAQPNNSNDNSNIAAAVSGVAAPKGPTMDAIIEAQNYAKQAVSALQFYDHEVACKMLRSALDLLAQR”, which “soluble on expression in E. coli” value is on record?
The value was “soluble”.

For “MSLSPAELHADSIVIDGLIIAKWNRELFEDMRKGGLTAANCTVSVWEGFQATVNNIAASNKLIRDNSDLVIPVRSTADIRKAKEQGKTGILYGFQNAHAFEDQIGYVEVFKQLGVGIVQMCYNTQNLVGTGCYERDGGLSGFGREIVAEMNRVGIMCDLSHVGSKTSEEVILESKKPVCYSHCLPSGLKEHPRNKSDEELKFIADHGGFVGVTMFAPFLKKGIDSTIDDYAEAIEYVMNIVGEDAIGIGTDFTQGHGHDFFEWLTHDKGYARRLTNFGKIVNPLGIRTVGEFPNLTETLLERGMPERVVRKVMGENWVRVLRDVEGHHHHHH”, which “soluble on expression in E. coli” value is on record?
Its value is “not soluble”.

Which “soluble on expression in E. coli” value does the source give for “SLPIFEARVKVGISSSWVTSRKVSWRDAIAQIESDRIVVKYLKMGEVVGEDSFPFSALIDLGVRIPDELKLNPEKDHFGIKFYIPGRGELLVIFTIEENLLIYDEKKFSEFVHKVFEVLINGKTVMLQLARIIGGAVNMESKWEEGWLRVIKVKSARTQKTERSIVVIIKDKRPVSIFSDLEDIEIEEVDMNGKRVRAWKIRHFHIDQSVTSYLYIPDKQTQLYVLRYLLKYNPAIMEFIMKVSDDFPTLKSEFQEIMEKEIKELEALDEMEKQILVALYSGINPLELHQFLGVSEKEIEEIYDRMIDKGLLKIVMIRKIVDLTNEGRKIVNKLLKYGLVSM” here?
The value was “soluble”.

For “MSDEREVAEAATGEDASSPPPKTEAASDPQHPAASEGAAAAAASPPLLRCLVLTGFGGYDKVKLQSRPAAPPAPGPGQLTLRLRACGLNFADLMARQGLYDRLPPLPVTPGMEGAGVVIAVGEGVSDRKAGDRVMVLNRSGMWQEEVTVPSVQTFLIPEAMTFEEAAALLVNYITAYMVLFDFGNLQPGHSVLVHMAAGGVGMAAVQLCRTVENVTVFGTASASKHEALKENGVTHPIDYHTTDYVDEIKKISPKGVDIVMDPLGGSDTAKGYNLLKPMGKVVTYGMANLLTGPKRNLMALARTWWNQFSVTALQLLQANRAVCGFHLGYLDGEVELVSGVVARLLALYNQGHIKPHIDSVWPFEKVADAMKQMQEKKNVGKVLLVPGPEKEN”, which “soluble on expression in E. coli” value is on record?
The value was “soluble”.
